Measured values: the supplement of paper PMC9233669
This sample holds only a part of the variants without activity.

Assays:
biotinyl-Phe-oxazolone = test: self-aminoacylation, catalytic enhancement (BFO) (fold over background); higher = more active; k-Seq, kA / k0A0; sequences stand for … in GGGAAUGGAUCCACAUCUACGAAUUC…UUCACUGCAGACUUGACGAAGCUG
Outline: (§1)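 Mutagenized RNA pools (0.43 μM; 21-nt variable region) were treated with 2–1250 μM of each biotinyl-aminoacyl-oxazolone. Conditions were 50 μL HEPES/NaCl/KCl/MgCl2/CaCl2 buffer, 5% acetonitrile, pH 6.9–7.0, room temperature, 90 minutes. Catalytic enhancement, the median kA relative to the uncatalyzed rate, was derived from streptavidin capture, qPCR and Illumina sequencing.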

biotinyl-Ile-oxazolone = test: self-aminoacylation, catalytic enhancement (BIO) (fold over background); higher = more active; k-Seq, kA / k0A0; sequences stand for … in GGGAAUGGAUCCACAUCUACGAAUUC…UUCACUGCAGACUUGACGAAGCUG
Outline: as §1

biotinyl-Met-oxazolone = test: self-aminoacylation, catalytic enhancement (BMO) (fold over background); higher = more active; k-Seq, kA / k0A0; sequences stand for … in GGGAAUGGAUCCACAUCUACGAAUUC…UUCACUGCAGACUUGACGAAGCUG
Outline: as §1

biotinyl-Val-oxazolone = test: self-aminoacylation, catalytic enhancement (BVO) (fold over background); higher = more active; k-Seq, kA / k0A0; sequences stand for … in GGGAAUGGAUCCACAUCUACGAAUUC…UUCACUGCAGACUUGACGAAGCUG
Outline: as §1

biotinyl-Leu-oxazolone = test: self-aminoacylation, catalytic enhancement (BLO) (fold over background); higher = more active; k-Seq, kA / k0A0; sequences stand for … in GGGAAUGGAUCCACAUCUACGAAUUC…UUCACUGCAGACUUGACGAAGCUG
Outline: as §1

biotinyl-Trp-oxazolone = test: self-aminoacylation, catalytic enhancement (BWO) (fold over background); higher = more active; k-Seq, kA / k0A0; sequences stand for … in GGGAAUGGAUCCACAUCUACGAAUUC…UUCACUGCAGACUUGACGAAGCUG
Outline: as §1

Sequence	self-aminoacylation (biotinyl-Phe-oxazolone)	self-aminoacylation (biotinyl-Ile-oxazolone)	self-aminoacylation (biotinyl-Met-oxazolone)	self-aminoacylation (biotinyl-Val-oxazolone)	self-aminoacylation (biotinyl-Leu-oxazolone)	self-aminoacylation (biotinyl-Trp-oxazolone)
CCAAACUUCAAGCAAUCGGUC [Fam1B.1 aminoacylation ribozyme variant]	30.1	1.19	1.02	1.26	1.41	15.6
CCAAACUUCAAGCAUUCGGUC [Fam1B.1 aminoacylation ribozyme variant]	1.96	2.1	1.83	1.86	1.84	1.75
CCACAAUUAAAGCAAUCGGUC [Fam1B.1 aminoacylation ribozyme variant]	0.833	1.13	0.88	1.13	0.881	0.66
CCACAAUUCAAGCAAGCGGUC [Fam1B.1 aminoacylation ribozyme variant]	0.932	1.3	1.3	1.42	0.998	0.509
CCACAAUUCAAGCAAUCGGCC [Fam1B.1 aminoacylation ribozyme variant]	5.63	4.08	4.55	4.38	3.52	3.88
CCACAAUUCAAGCAAUCGUUC [Fam1B.1 aminoacylation ribozyme variant]	1.06	0.909	0.815	0.864	0.713	0.719
CCACAAUUCAAGCAAUCUGUC [Fam1B.1 aminoacylation ribozyme variant]	0.965	0.576	0.524	0.746	0.558	0.559
CCACAAUUCAAGCAAUGGGUC [Fam1B.1 aminoacylation ribozyme variant]	0.531	1.22	1.13	1.03	1.17	0.734
CCACAAUUCAAGUAAUCGGUC [Fam1B.1 aminoacylation ribozyme variant]	2.55	0.96	0.906	0.91	0.898	1.36
CCACAAUUCAUGCAAUCGGUC [Fam1B.1 aminoacylation ribozyme variant]	1.19	1.25	1.1	1.41	1.16	0.87
CCACAAUUGAAGCAAUCGGUC [Fam1B.1 aminoacylation ribozyme variant]	0.687	0.913	0.746	0.869	0.716	1.16
CCACACAACAAGCAAUCGGUC [Fam1B.1 aminoacylation ribozyme variant]	1.15	0.894	0.781	0.899	0.863	0.693
CCACACAUCAACCAAUCGGUC [Fam1B.1 aminoacylation ribozyme variant]	1.2	0.785	0.622	0.745	0.487	1.26
CCACACAUCAAGCAAUCAGUC [Fam1B.1 aminoacylation ribozyme variant]	1.22	0.82	0.664	0.708	0.708	0.575
CCACACAUCAAGCAAUCGUUC [Fam1B.1 aminoacylation ribozyme variant]	0.673	0.807	0.617	0.783	0.722	0.543
CCACACAUCAAGCAAUGGGUC [Fam1B.1 aminoacylation ribozyme variant]	1.33	1.08	0.97	1.08	0.806	0.706
CCACACAUCAAGGAAUCGGUC [Fam1B.1 aminoacylation ribozyme variant]	0.77	1.04	0.804	0.884	1.02	0.926
CCACACCUCAAGCAAUCAGUC [Fam1B.1 aminoacylation ribozyme variant]	1.26	0.843	0.804	0.856	0.6	0.558
CCACACCUCAAGCAAUCGAUC [Fam1B.1 aminoacylation ribozyme variant]	0.758	0.643	0.442	0.76	0.553	0.298
CCACACCUCAAGCAAUUGGUC [Fam1B.1 aminoacylation ribozyme variant]	1.05	0.937	0.699	0.754	0.873	0.738
CCACACCUCAAGCAGUCGGUC [Fam1B.1 aminoacylation ribozyme variant]	0.725	1.34	1.02	1.6	1.47	1.02

Sequence	self-aminoacylation (biotinyl-Phe-oxazolone)	self-aminoacylation (biotinyl-Ile-oxazolone)	self-aminoacylation (biotinyl-Met-oxazolone)	self-aminoacylation (biotinyl-Val-oxazolone)	self-aminoacylation (biotinyl-Leu-oxazolone)	self-aminoacylation (biotinyl-Trp-oxazolone)
CCACACCUCAAGCCAUCGGUC [Fam1B.1 aminoacylation ribozyme variant]	2.01	1.27	1.38	1.42	1.41	1.55
CCACACCUUAAGCAAUCGGUC [Fam1B.1 aminoacylation ribozyme variant]	0.93	1.16	1.15	1.19	1.03	0.714
CCACACGUCAAACAAUCGGUC [Fam1B.1 aminoacylation ribozyme variant]	1.2	1.21	1.2	1.34	1.45	1.83
CCACACGUCAACCAAUCGGUC [Fam1B.1 aminoacylation ribozyme variant]	1.24	1.09	1.07	1.47	1.17	1.32
CCACACGUCAAGCAAUCGUUC [Fam1B.1 aminoacylation ribozyme variant]	0.752	0.799	1.17	1.03	0.842	1.01
CCACACGUCAAGCGAUCGGUC [Fam1B.1 aminoacylation ribozyme variant]	1.06	1.21	1.14	2.3	1.11	1.61
CCACACGUCAAUCAAUCGGUC [Fam1B.1 aminoacylation ribozyme variant]	1.24	1.05	1.09	1.1	0.966	0.926
CCACACGUCAGGCAAUCGGUC [Fam1B.1 aminoacylation ribozyme variant]	3.26	1.38	1.33	2.52	1.81	1.93
CCACACUACAAGCAACCGGUC [Fam1B.1 aminoacylation ribozyme variant]	1.03	1.29	0.649	0.674	0.948	0.793
CCACACUACAAGCAAUCGCUC [Fam1B.1 aminoacylation ribozyme variant]	1.2	1.22	1.59	1.29	1.31	1.32
CCACACUACAAGCAAUCGGUU [Fam1B.1 aminoacylation ribozyme variant]	1.55	1.02	0.918	1.08	0.677	1.39
CCACACUACAAGCAUUCGGUC [Fam1B.1 aminoacylation ribozyme variant]	3.61	2.14	2.58	2.71	1.73	2.04
CCACACUACAAUCAAUCGGUC [Fam1B.1 aminoacylation ribozyme variant]	1.18	0.797	0.663	0.877	0.688	0.811
CCACACUCCAAGCAAUCAGUC [Fam1B.1 aminoacylation ribozyme variant]	1.54	0.781	0.699	0.911	0.73	0.672
CCACACUCCAAGCACUCGGUC [Fam1B.1 aminoacylation ribozyme variant]	0.642	1.35	1.32	1.24	0.768	0.831
CCACACUCGAAGCAAUCGGUC [Fam1B.1 aminoacylation ribozyme variant]	1.07	1.2	1.1	1.11	0.764	0.864
CCACACUGCAAGCAAUCAGUC [Fam1B.1 aminoacylation ribozyme variant]	1.1	0.79	0.584	0.741	0.852	0.551
CCACACUGCAGGCAAUCGGUC [Fam1B.1 aminoacylation ribozyme variant]	5.92	1.44	1.76	2.17	1.57	1.38
CCACACUGCAUGCAAUCGGUC [Fam1B.1 aminoacylation ribozyme variant]	0.714	0.875	0.803	0.857	0.507	0.659
CCACACUGGAAGCAAUCGGUC [Fam1B.1 aminoacylation ribozyme variant]	0.508	0.881	0.78	1.08	0.737	0.543
CCACACUUAAAGCAAACGGUC [Fam1B.1 aminoacylation ribozyme variant]	0.924	0.685	0.502	0.765	0.616	0.578
